Results on one substance are retold here after article PMC2148441.

In this assay the target is human phosphopantetheinyl transferase (human) (UniProt Q9NRN7).

With “ACP domain of human fatty acid synthase with the hydrophobic patch Leu2157, Met2158, Val2160 replaced by alanine (from UniProt P49327 2117-2205) (domain or fragment)”, the Km for ACP in the PPT reaction after replacement of the hydrophobic patch by alanines (data not shown) was above 1000 fold.
